The target of the assay is relaxin binding sites on primary human fetal cardiac cells (receptor not named) (human). Description: competitive binding on cultured cells: 100 µM 32P-relaxin, 2 hr at room temperature, with or without 1000-fold excess of unlabeled relaxin; (total - nonspecific)/total x 100.

As to “32P-labeled relaxin (from UniProt P04090 162-185; P04090 25-53) (ligand)”, the percent specific binding is 40 to 55%.

The values above are taken from patent publication US20020019349A1.
